# Data reported in article PMC8748612, “Maximizing response to intratumoral immunotherapy in mice by tuning local retention” (Nature Communications, 2022).
# B1: LAIR-LAIRx-MSA^H464Q-his (other)
# chain: QEGSLPDITIFPNSSLMISQGTFVTVVCSYSDKHDLYNMVRLEKDGSTFMEKSTEPYKTEDEFEIGPVNETITGHYSCIYSKGITWSERSKTLELKVIKENVIQTPAPGPTSDTSWLKTYSIYQEGSLPDITIFPNSSLMISQGTFVTVVCSYSDKHDLYNMVALAKDGSTFMEKSTEPYKTEDEFEIGPVNETITGHYSCIYSKGITWSERSKTLELKVIKENVIQTPAPGPTSDTSWLKTYSIYEAHKSEIAHRYNDLGEQHFKGLVLIAFSQYLQKCSYDEHAKLVQEVTDFAKTCVADESAANCDKSLHTLFGDKLCAIPNLRENYGELADCCTKQEPERNECFLQHKDDNPSLPPFERPEAEAMCTSFKENPTTFMGHYLHEVARRHPYFYAPELLYYAEQYNEILTQCCAEADKESCLTPKLDGVKEKALVSSVRQRMKCSSMQKFGERAFKAWAVARLSQTFPNADFAEITKLATDLTKVNKECCHGDLLECADDRAELAKYMCENQATISSKLQTCCDKPLLKKAHCLSEVEHDTMPADLPAIAADFVEDQEVCKNYAEAKDVFLGTFLYEYSRRHPDYSVSLLLRLAKKYEATLEKCCAEANPPACYGTVLAEFQPLVEEPKNLVKTNCDLYEKLGEYGFQNAILVRYTQKAPQVSTPTLVEAARNLGRVGTKCCTLPEDQRLPCVEDYLSAILNRVCLLQEKTPVSEHVTKCCSGSLVERRPCFSALTVDETYVPKEFKAETFTFHSDICTLPEKEKQIKKQTALAELVKHKPKATAEQLKTVMDDFAQFLDTCCKAADKDTCFSTEGPNLVTRCKDALA
# B2: LAIR-LAIR-MSA^H464Q-his (other)
# chain: QEGSLPDITIFPNSSLMISQGTFVTVVCSYSDKHDLYNMVRLEKDGSTFMEKSTEPYKTEDEFEIGPVNETITGHYSCIYSKGITWSERSKTLELKVIKENVIQTPAPGPTSDTSWLKTYSIYQEGSLPDITIFPNSSLMISQGTFVTVVCSYSDKHDLYNMVRLEKDGSTFMEKSTEPYKTEDEFEIGPVNETITGHYSCIYSKGITWSERSKTLELKVIKENVIQTPAPGPTSDTSWLKTYSIYEAHKSEIAHRYNDLGEQHFKGLVLIAFSQYLQKCSYDEHAKLVQEVTDFAKTCVADESAANCDKSLHTLFGDKLCAIPNLRENYGELADCCTKQEPERNECFLQHKDDNPSLPPFERPEAEAMCTSFKENPTTFMGHYLHEVARRHPYFYAPELLYYAEQYNEILTQCCAEADKESCLTPKLDGVKEKALVSSVRQRMKCSSMQKFGERAFKAWAVARLSQTFPNADFAEITKLATDLTKVNKECCHGDLLECADDRAELAKYMCENQATISSKLQTCCDKPLLKKAHCLSEVEHDTMPADLPAIAADFVEDQEVCKNYAEAKDVFLGTFLYEYSRRHPDYSVSLLLRLAKKYEATLEKCCAEANPPACYGTVLAEFQPLVEEPKNLVKTNCDLYEKLGEYGFQNAILVRYTQKAPQVSTPTLVEAARNLGRVGTKCCTLPEDQRLPCVEDYLSAILNRVCLLQEKTPVSEHVTKCCSGSLVERRPCFSALTVDETYVPKEFKAETFTFHSDICTLPEKEKQIKKQTALAELVKHKPKATAEQLKTVMDDFAQFLDTCCKAADKDTCFSTEGPNLVTRCKDALA
# B3: LAIRx-IL2-his (other)
# chain: QEGSLPDITIFPNSSLMISQGTFVTVVCSYSDKHDLYNMVALAKDGSTFMEKSTEPYKTEDEFEIGPVNETITGHYSCIYSKGITWSERSKTLELKVIKENVIQTPAPGPTSDTSWLKTYSIYAPTSSSTSSSTAEAQQQQQQQQQQQQHLEQLLMDLQELLSRMENYRNLKLPRMLTFKFYLPKQATELKDLQCLEDELGPLRHVLDLTQSKSFQLEDAENFISNIRVTVVKLKGSDNTFECQFDDESATVVDFLRRWIAFCQSIISTSPQ
# Columns and labels:
# [1] = target: Collagen I (Gibco), coated on 96-well plates (UniProt P02454); test: ELISA; Collagen I (Gibco) coated 96-well plates; LAIR-fusion proteins in PBSTA (PBS, 0.1% BSA, 0.05% Tween-20) for 4 h at room temperature; detected with HRP-conjugated polyclonal anti-6xHis
# Chain of Collagen I (Gibco), coated on 96-well plates (UniProt P02454) (P02454 152-1207, chain 1 of 2): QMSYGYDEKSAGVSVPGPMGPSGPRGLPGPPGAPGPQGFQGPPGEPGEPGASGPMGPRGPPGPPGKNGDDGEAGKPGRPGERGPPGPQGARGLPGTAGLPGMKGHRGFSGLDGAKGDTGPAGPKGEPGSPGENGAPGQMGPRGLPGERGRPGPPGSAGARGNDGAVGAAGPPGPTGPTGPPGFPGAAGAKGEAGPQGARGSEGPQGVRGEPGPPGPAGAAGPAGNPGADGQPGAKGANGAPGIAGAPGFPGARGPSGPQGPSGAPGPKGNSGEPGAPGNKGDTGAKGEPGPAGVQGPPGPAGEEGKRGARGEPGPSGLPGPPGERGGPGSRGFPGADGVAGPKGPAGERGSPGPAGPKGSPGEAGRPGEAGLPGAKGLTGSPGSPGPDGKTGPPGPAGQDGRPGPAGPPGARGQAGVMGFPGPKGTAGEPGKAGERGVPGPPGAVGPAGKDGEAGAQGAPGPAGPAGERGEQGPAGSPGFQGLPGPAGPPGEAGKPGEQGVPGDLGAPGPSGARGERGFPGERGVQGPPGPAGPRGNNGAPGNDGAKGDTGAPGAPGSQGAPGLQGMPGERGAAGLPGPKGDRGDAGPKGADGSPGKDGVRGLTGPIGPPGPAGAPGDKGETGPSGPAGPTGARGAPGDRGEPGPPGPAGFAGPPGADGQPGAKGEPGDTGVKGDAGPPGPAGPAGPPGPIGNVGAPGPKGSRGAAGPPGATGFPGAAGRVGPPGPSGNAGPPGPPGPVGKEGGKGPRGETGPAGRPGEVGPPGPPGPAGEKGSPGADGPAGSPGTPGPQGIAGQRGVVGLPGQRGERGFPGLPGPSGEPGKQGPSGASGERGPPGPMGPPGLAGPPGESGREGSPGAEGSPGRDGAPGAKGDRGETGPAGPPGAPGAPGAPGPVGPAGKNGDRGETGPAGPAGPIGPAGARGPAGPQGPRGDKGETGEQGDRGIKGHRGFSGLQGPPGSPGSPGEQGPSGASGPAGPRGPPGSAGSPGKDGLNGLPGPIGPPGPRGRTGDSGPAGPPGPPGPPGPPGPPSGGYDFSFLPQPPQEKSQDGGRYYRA
# Chain of Collagen I (Gibco), coated on 96-well plates (UniProt P02454) (P02466 86-1125, chain 2 of 2, further chain): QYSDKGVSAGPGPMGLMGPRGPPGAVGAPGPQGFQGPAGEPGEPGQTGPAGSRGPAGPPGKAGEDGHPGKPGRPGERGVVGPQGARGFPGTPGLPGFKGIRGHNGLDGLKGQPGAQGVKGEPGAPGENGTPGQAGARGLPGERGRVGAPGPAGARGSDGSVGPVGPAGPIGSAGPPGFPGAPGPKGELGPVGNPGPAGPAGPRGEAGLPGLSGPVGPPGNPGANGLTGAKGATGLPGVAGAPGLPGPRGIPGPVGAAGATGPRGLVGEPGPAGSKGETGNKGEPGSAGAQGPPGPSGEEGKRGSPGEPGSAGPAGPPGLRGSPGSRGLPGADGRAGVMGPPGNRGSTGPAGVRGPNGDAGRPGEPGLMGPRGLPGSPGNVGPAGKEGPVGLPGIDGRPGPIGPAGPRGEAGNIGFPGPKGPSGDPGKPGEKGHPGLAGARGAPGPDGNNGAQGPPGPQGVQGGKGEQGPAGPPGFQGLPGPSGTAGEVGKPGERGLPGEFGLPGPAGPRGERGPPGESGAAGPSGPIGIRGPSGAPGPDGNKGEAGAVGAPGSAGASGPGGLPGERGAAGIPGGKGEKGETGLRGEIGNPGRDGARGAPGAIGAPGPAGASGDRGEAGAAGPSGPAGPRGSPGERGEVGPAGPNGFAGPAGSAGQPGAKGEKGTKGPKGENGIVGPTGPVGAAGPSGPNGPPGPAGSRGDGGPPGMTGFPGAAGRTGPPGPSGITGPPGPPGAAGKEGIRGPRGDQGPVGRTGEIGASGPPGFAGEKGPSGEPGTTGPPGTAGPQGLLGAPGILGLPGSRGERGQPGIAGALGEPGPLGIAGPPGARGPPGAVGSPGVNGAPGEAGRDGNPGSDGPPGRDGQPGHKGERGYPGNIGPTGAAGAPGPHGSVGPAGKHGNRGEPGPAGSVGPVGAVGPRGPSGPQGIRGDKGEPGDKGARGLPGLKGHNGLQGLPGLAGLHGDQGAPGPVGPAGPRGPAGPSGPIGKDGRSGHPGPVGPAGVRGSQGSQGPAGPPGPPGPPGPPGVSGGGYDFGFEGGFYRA
# [2] = target: Collagen I (Gibco), coated on 96-well plates (UniProt P02454 152-1207; P02466 86-1125); test: ELISA
# Target sequence in this assay (P02454 152-1207, chain 1 of 2): as the sequence (P02454 152-1207, chain 1 of 2) above
# Target sequence in this assay (P02466 86-1125, chain 2 of 2): as the sequence (P02466 86-1125, chain 2 of 2, further chain) above
# [3] = target: T1, Collagen I (Gibco), coated on 96-well plates (UniProt P02454 152-1207; P02466 86-1125); test: ELISA; Collagen I (Gibco) coated 96-well plates; LAIR-fusion proteins in PBSTA (PBS, 0.1% BSA, 0.05% Tween-20) for 4 h at room temperature; detected with HRP-conjugated polyclonal anti-6xHis; settings: both partners purified
# T1 construct: collagen type I, alpha-1(I) chain; collagen type I, alpha-2(I) chain; the two chains and rat as species are surmised; also called native collagen; collagen type I; source: bought: Gibco (collagen I coated 96-well plates)
# T1 sequence (P02454 152-1207, chain 1 of 2): as the sequence (P02454 152-1207, chain 1 of 2) above
# T1 sequence (P02466 86-1125, chain 2 of 2): as the sequence (P02466 86-1125, chain 2 of 2, further chain) above
Kd [1] [nM],Kd [2] [nM],further results,Molecule
220,,,LAIR-IL2-his (from UniProt Q8BG84 22-144)
13,,,LAIR-LAIR-MSA^H464Q-IL2-his (from UniProt Q8BG84 22-144; Q8BG84 22-144)
,158,,B1
,20,,B2
,,Kd [3]: > 1000 nM,B3
